Results reported in patent publication US10131702B2, “Glucagon-GLP-1-GIP triple agonist compounds” (priority 2013, dated 2018).
Where two headings read alike, the source gives them in different places. Numbered stars: 1 amine (or outer) side, 2 acyl side, 3 side chain; on linkers, the order of the positions; unused ones are H or OH. Square brackets hold non-standard residues; d marks the D form. Side chains are listed from the residue outwards. * marks the point of attachment. C18 diacid = O=C(O)CCCCCCCCCCCCCCCCC(=O)*; γGlu = O=C(O)[C@H](CCC(=O)[*:2])N[*:1]; Stearoyl = CCCCCCCCCCCCCCCCCC(=O)*; Aib = CC(C)(N)C(=O)O

What was measured:
Test in all cases: cell-based or functional assay
[1] = biological target: human glucagon receptor (human) (UniProt P47871)
Chain of human glucagon receptor (human) (P47871 26-477): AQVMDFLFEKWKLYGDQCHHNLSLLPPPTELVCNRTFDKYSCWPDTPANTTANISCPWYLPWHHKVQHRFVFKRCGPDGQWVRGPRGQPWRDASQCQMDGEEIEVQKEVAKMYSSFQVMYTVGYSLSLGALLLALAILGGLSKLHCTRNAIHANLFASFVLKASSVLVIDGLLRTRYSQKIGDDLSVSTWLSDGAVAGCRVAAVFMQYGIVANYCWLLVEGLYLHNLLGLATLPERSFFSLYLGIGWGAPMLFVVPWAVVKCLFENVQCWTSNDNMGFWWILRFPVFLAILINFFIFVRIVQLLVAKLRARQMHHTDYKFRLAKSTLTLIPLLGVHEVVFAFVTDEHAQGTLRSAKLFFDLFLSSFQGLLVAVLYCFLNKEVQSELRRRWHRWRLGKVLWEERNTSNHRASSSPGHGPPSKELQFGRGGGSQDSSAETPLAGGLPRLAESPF

[2] = biological target: human GIP receptor (human) (UniProt P48546)
human glucagon receptor [3] = biological target: T1, human glucagon receptor (human, UniProt P47871 26-477)
T1 sequence (P47871 26-477): as above

[4] = biological target: T2, human glucagon-like peptide 1 receptor (human, UniProt P43220 24-463)
human GIP receptor [5] = biological target: T3, human GIP receptor (human, UniProt P48546 22-466)
T3 sequence: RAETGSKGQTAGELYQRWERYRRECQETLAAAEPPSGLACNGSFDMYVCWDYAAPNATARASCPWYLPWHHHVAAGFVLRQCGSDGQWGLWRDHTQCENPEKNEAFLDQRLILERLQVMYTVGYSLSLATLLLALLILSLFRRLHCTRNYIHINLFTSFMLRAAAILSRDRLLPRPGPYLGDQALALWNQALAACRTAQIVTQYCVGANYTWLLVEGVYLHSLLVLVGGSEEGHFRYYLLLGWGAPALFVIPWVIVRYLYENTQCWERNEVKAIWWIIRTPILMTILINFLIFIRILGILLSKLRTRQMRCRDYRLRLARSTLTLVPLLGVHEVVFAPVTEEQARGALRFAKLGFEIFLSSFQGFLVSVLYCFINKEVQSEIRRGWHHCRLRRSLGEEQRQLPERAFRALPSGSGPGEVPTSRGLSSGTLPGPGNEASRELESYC

human glucagon receptor [6] = biological target: T1, human glucagon receptor; remark: listed apart in the source
[7] = biological target: T2, human glucagon-like peptide 1 receptor; remark: listed apart in the source
human GIP receptor [8] = biological target: T3, human GIP receptor; remark: listed apart in the source
[9] = biological target: human glucagon-like peptide 1 receptor (human) (UniProt P43220)
Chain of human glucagon-like peptide 1 receptor (human) (P43220 24-463): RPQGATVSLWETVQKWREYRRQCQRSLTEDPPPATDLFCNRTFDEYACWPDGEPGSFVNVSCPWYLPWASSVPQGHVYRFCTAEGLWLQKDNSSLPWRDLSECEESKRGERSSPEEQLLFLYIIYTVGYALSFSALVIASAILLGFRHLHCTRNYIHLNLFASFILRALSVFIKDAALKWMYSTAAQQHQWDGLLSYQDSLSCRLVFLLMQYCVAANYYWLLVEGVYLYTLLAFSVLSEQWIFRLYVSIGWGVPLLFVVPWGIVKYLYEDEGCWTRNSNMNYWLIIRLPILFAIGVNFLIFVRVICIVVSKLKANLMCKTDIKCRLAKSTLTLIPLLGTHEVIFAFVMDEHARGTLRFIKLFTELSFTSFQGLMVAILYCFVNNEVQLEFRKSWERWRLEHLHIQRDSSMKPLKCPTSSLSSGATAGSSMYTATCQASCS

Exendin-4 (from UniProt P26349 48-86) (peptide)
EC50 (cAMP induction) [1]: > 10000 pM
EC50 (cAMP induction) [2]: 4 pM

B1: Compound 24 (peptide)
peptide: YAQGTFTSDYSIYLEKKAAKEFVEWLLSA
HELM: PEPTIDE1{Y.[Aib].Q.G.T.F.T.S.D.Y.S.I.Y.L.E.K.K.A.A.K.E.F.V.E.W.L.L.S.A.[am]}|PEPTIDE2{[CCCCCCCCCCCCCCCC(=O)[*:2]].[gGlu]}$PEPTIDE1,PEPTIDE2,16:R3-2:R2$$$V2.0
SMILES: CCCCCCCCCCCCCCCC(=O)N[C@@H](CCC(=O)NCCCC[C@H](NC(=O)[C@H](CCC(=O)O)NC(=O)[C@H](CC(C)C)NC(=O)[C@H](Cc1ccc(O)cc1)NC(=O)[C@@H](NC(=O)[C@H](CO)NC(=O)[C@H](Cc1ccc(O)cc1)NC(=O)[C@H](CC(=O)O)NC(=O)[C@H](CO)NC(=O)[C@@H](NC(=O)[C@H](Cc1ccccc1)NC(=O)[C@@H](NC(=O)CNC(=O)[C@H](CCC(N)=O)NC(=O)C(C)(C)NC(=O)[C@@H](N)Cc1ccc(O)cc1)[C@@H](C)O)[C@@H](C)O)[C@@H](C)CC)C(=O)N[C@@H](CCCCN)C(=O)N[C@@H](C)C(=O)N[C@@H](C)C(=O)N[C@@H](CCCCN)C(=O)N[C@@H](CCC(=O)O)C(=O)N[C@@H](Cc1ccccc1)C(=O)N[C@H](C(=O)N[C@@H](CCC(=O)O)C(=O)N[C@@H](Cc1c[nH]c2ccccc12)C(=O)N[C@@H](CC(C)C)C(=O)N[C@@H](CC(C)C)C(=O)N[C@@H](CO)C(=O)N[C@@H](C)C(N)=O)C(C)C)C(=O)O
EC50 (cAMP induction) (human glucagon receptor [3]): 280 pM
EC50 (cAMP induction) [4]: 91 pM
EC50 (cAMP induction) (human GIP receptor [5]): 100 pM
EC50 (cAMP induction) (human glucagon receptor [6]): 280 pM
EC50 (cAMP induction) [7]: 91 pM
EC50 (cAMP induction) (human GIP receptor [8]): 100 pM

B2: Compound 25 (peptide)
peptide: YAQGTFTSDYSKYLEKKAAKEFVEWLLSA
HELM: PEPTIDE1{Y.[Aib].Q.G.T.F.T.S.D.Y.S.K.Y.L.E.K.K.A.A.K.E.F.V.E.W.L.L.S.A.[am]}|PEPTIDE2{[CCCCCCCCCCCCCCCC(=O)[*:2]].[gGlu]}$PEPTIDE1,PEPTIDE2,12:R3-2:R2$$$V2.0
SMILES: CCCCCCCCCCCCCCCC(=O)N[C@@H](CCC(=O)NCCCC[C@H](NC(=O)[C@H](CO)NC(=O)[C@H](Cc1ccc(O)cc1)NC(=O)[C@H](CC(=O)O)NC(=O)[C@H](CO)NC(=O)[C@@H](NC(=O)[C@H](Cc1ccccc1)NC(=O)[C@@H](NC(=O)CNC(=O)[C@H](CCC(N)=O)NC(=O)C(C)(C)NC(=O)[C@@H](N)Cc1ccc(O)cc1)[C@@H](C)O)[C@@H](C)O)C(=O)N[C@@H](Cc1ccc(O)cc1)C(=O)N[C@@H](CC(C)C)C(=O)N[C@@H](CCC(=O)O)C(=O)N[C@@H](CCCCN)C(=O)N[C@@H](CCCCN)C(=O)N[C@@H](C)C(=O)N[C@@H](C)C(=O)N[C@@H](CCCCN)C(=O)N[C@@H](CCC(=O)O)C(=O)N[C@@H](Cc1ccccc1)C(=O)N[C@H](C(=O)N[C@@H](CCC(=O)O)C(=O)N[C@@H](Cc1c[nH]c2ccccc12)C(=O)N[C@@H](CC(C)C)C(=O)N[C@@H](CC(C)C)C(=O)N[C@@H](CO)C(=O)N[C@@H](C)C(N)=O)C(C)C)C(=O)O
EC50 (cAMP induction) (human glucagon receptor [3]): 300 pM
EC50 (cAMP induction) [4]: 280 pM
EC50 (cAMP induction) (human GIP receptor [5]): 250 pM
EC50 (cAMP induction) (human glucagon receptor [6]): 300 pM
EC50 (cAMP induction) [7]: 280 pM
EC50 (cAMP induction) (human GIP receptor [8]): 250 pM

B3: Compound 23 (peptide)
peptide: YAQGTFTSDYSIYLEKKAAKEFVEWLLSA
HELM: PEPTIDE1{Y.[Aib].Q.G.T.F.T.S.D.Y.S.I.Y.L.E.K.K.A.A.K.E.F.V.E.W.L.L.S.A.[am]}|PEPTIDE2{[CCCCCCCCCCCCCCCC(=O)[*:2]].[gGlu]}$PEPTIDE1,PEPTIDE2,17:R3-2:R2$$$V2.0
SMILES: CCCCCCCCCCCCCCCC(=O)N[C@@H](CCC(=O)NCCCC[C@H](NC(=O)[C@H](CCCCN)NC(=O)[C@H](CCC(=O)O)NC(=O)[C@H](CC(C)C)NC(=O)[C@H](Cc1ccc(O)cc1)NC(=O)[C@@H](NC(=O)[C@H](CO)NC(=O)[C@H](Cc1ccc(O)cc1)NC(=O)[C@H](CC(=O)O)NC(=O)[C@H](CO)NC(=O)[C@@H](NC(=O)[C@H](Cc1ccccc1)NC(=O)[C@@H](NC(=O)CNC(=O)[C@H](CCC(N)=O)NC(=O)C(C)(C)NC(=O)[C@@H](N)Cc1ccc(O)cc1)[C@@H](C)O)[C@@H](C)O)[C@@H](C)CC)C(=O)N[C@@H](C)C(=O)N[C@@H](C)C(=O)N[C@@H](CCCCN)C(=O)N[C@@H](CCC(=O)O)C(=O)N[C@@H](Cc1ccccc1)C(=O)N[C@H](C(=O)N[C@@H](CCC(=O)O)C(=O)N[C@@H](Cc1c[nH]c2ccccc12)C(=O)N[C@@H](CC(C)C)C(=O)N[C@@H](CC(C)C)C(=O)N[C@@H](CO)C(=O)N[C@@H](C)C(N)=O)C(C)C)C(=O)O
EC50 (cAMP induction) (human glucagon receptor [3]): 140 pM
EC50 (cAMP induction) [4]: 140 pM
EC50 (cAMP induction) (human GIP receptor [5]): 110 pM
EC50 (cAMP induction) (human glucagon receptor [6]): 140 pM
EC50 (cAMP induction) [7]: 110 pM
EC50 (cAMP induction) (human GIP receptor [8]): 130 pM

B4: Compound 42 (peptide)
peptide: YXQGTFTSDYSIALDKKAQRAFVNWLVAXKPSSGAPPPS
modifications: X at 2 and 29 = Aib; Lys 17 as K(Octadecanoyl-isoGlu-Peg3-Peg3); C-terminal amide (-NH2)
EC50 (cAMP induction) [1]: 32 pM
EC50 (cAMP induction) [9]: 36 pM
EC50 (cAMP induction) [2]: 15 pM

B5: Compound 43 (peptide)
peptide: YXQGTFTSDYSIALDKKAQRAFVNWLVAXKPSSGAPPPS
modifications: X at 2 and 29 = Aib; Lys 17 as K(Octadecanoyl-Dapa-Peg3-Peg3); C-terminal amide (-NH2)
EC50 (cAMP induction) [1]: 36 pM
EC50 (cAMP induction) [9]: 14 pM
EC50 (cAMP induction) [2]: 9.8 pM

B6: Compound 22 (peptide)
peptide: YAQGTFTSDYSKYLEKKAQKEFVEWLLSA
HELM: PEPTIDE1{Y.[Aib].Q.G.T.F.T.S.D.Y.S.K.Y.L.E.K.K.A.Q.K.E.F.V.E.W.L.L.S.A.[am]}$$$$V2.0
SMILES: CC(C)C[C@H](NC(=O)[C@H](CC(C)C)NC(=O)[C@H](Cc1c[nH]c2ccccc12)NC(=O)[C@H](CCC(=O)O)NC(=O)[C@@H](NC(=O)[C@H](Cc1ccccc1)NC(=O)[C@H](CCC(=O)O)NC(=O)[C@H](CCCCN)NC(=O)[C@H](CCC(N)=O)NC(=O)[C@H](C)NC(=O)[C@H](CCCCN)NC(=O)[C@H](CCCCN)NC(=O)[C@H](CCC(=O)O)NC(=O)[C@H](CC(C)C)NC(=O)[C@H](Cc1ccc(O)cc1)NC(=O)[C@H](CCCCN)NC(=O)[C@H](CO)NC(=O)[C@H](Cc1ccc(O)cc1)NC(=O)[C@H](CC(=O)O)NC(=O)[C@H](CO)NC(=O)[C@@H](NC(=O)[C@H](Cc1ccccc1)NC(=O)[C@@H](NC(=O)CNC(=O)[C@H](CCC(N)=O)NC(=O)C(C)(C)NC(=O)[C@@H](N)Cc1ccc(O)cc1)[C@@H](C)O)[C@@H](C)O)C(C)C)C(=O)N[C@@H](CO)C(=O)N[C@@H](C)C(N)=O
EC50 (cAMP induction) (human glucagon receptor [3]): 760 pM
EC50 (cAMP induction) [4]: 760 pM
EC50 (cAMP induction) (human GIP receptor [5]): 30 pM
EC50 (cAMP induction) (human glucagon receptor [6]): 760 pM
EC50 (cAMP induction) [7]: 28 pM
EC50 (cAMP induction) (human GIP receptor [8]): 180 pM

H-Y[Aib]QGTFTSDYSIYLEKK([Peg3-Peg3-γGlu-C18 diacid])AQRAFVEWLLRA-NH2 [Compound 51]
EC50 (cAMP induction) [1]: 1400 pM
EC50 (cAMP induction) [9]: 26 pM
EC50 (cAMP induction) [2]: 33 pM

H-Y[Aib]QGTFTSDLSIALEKK([Peg3-Peg3-γGlu-Stearoyl])AQRAFVEWLLAQK-NH2 [Compound 48]
EC50 (cAMP induction) [1]: 190 pM
EC50 (cAMP induction) [9]: 13 pM
EC50 (cAMP induction) [2]: 13 pM
